Test results: patent publication US20250152742A1, “COMPOSITIONS AND METHODS FOR NEUROLOGICAL DISEASES” (Trames Bio, Inc., priority 2022, published 2025)

Test system: engineered chimeric receptor SEQ ID NO: 33 and its mutants (human α7-nAChR ligand binding domain / human GlyRα1 ion pore domain) in Lenti-X 293T cells
Assay: YFP fluorescence quenching anion reporter plate reader assay (percent quench, EC50)
Format: cell-based
Conditions: for YFP fluorescence quenching using CNL001 (percent quench): receptor named in row
How it was run: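 Percent quench compares mean YFP signal over the final 10 s with the 15 s baseline before ligand, added in iodide-containing extracellular solution (pH 7.2). Cells were LX293T carrying a YFP anion reporter, transiently transfected with the channel construct; plates were preincubated 30 min at 37 °C.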

B1: CODA534: engineered receptor: L131S, S172D in SEQ ID NO: 33 (protein)
chain: MRCSPGGVWLALAASLLHVSLQGEFQRKLYKELVKNYNPLERPVANDSQPLTVYFSLSLLQIMDVDEKNQVLTTNIWLQMSWTDHYLQWNVSEYPGVKTVRFPDGQIWKPDILLYNSADERFDATFHTNVSVNSSGHCQYLPPGIFKSSCPMDLKNFPMDVQTCKLKFGSWDYGGWSLDLQMQEADISGYIPNGEWDLVGIPGKRSERFYECCKEPYPDVTFTVTMRRRMGYYLIQMYIPSLLIVILSWISFWINMDAAPARVGLGITTVLTMTTQSSGSRASLPKVSYVKAIDIWMAVCLLFVFSALLEYAAVNFVSRQHKELLRFRRKRRHHKSPMLNLFQEDEAGEGRFNFSAYGMGPACLQAKDGISVKGANNSNTTNPPPAPSKSPEEMRKLFIQRAKKIDKISRIGFPMAFLIFNMFYWIIYKIVRREDVHNQ
modifications: synthetic sequence of chimeric LGIC
- YFP fluorescence quenching using CNL001 (percent quench) (1 nM CNL001, first column so headed): 23.438%
- YFP fluorescence quenching using CNL001 (percent quench) (1 nM CNL001, second column so headed): 28.59%
- YFP fluorescence quenching using TC-5619/Bradanicline (percent quench) (1 nM brd (TC-5619/Bradanicline)): −1.13%
- YFP fluorescence quenching using TC-5619/Bradanicline (percent quench) (3 nM brd (TC-5619/Bradanicline)): −3.83%
- YFP fluorescence quenching using CNL001 (percent quench) (10 nM CNL001, first column so headed): 56.882%
- YFP fluorescence quenching using CNL001 (percent quench) (10 nM CNL001, second column so headed): 56.777%
- YFP fluorescence quenching using TC-5619/Bradanicline (percent quench) (10 nM brd (TC-5619/Bradanicline)): −3.78%
- YFP fluorescence quenching using TC-6683 (percent quench) (30 nM TC-6683): −22.464%
- YFP fluorescence quenching using CNL001 (percent quench) (50 nM CNL001, first column so headed): 65.044%
- YFP fluorescence quenching using CNL001 (percent quench) (50 nM CNL001, second column so headed): 67.373%
- YFP fluorescence quenching using ABT-126 (percent quench) (50 nM abt (ABT-126)): −11.96%
- YFP fluorescence quenching using CNL001 (percent quench) (100 nM CNL001, first column so headed): 68.666%
- YFP fluorescence quenching using CNL001 (percent quench) (100 nM CNL001, second column so headed): 70.357%
- YFP fluorescence quenching (percent quench) (100 nM CNL002): 14.26%
- YFP fluorescence quenching using ABT-126 (percent quench) (100 nM abt (ABT-126)): −10.72%
- YFP fluorescence quenching using AZD-0328 (percent quench) (100 nM azd0328): −9.32%
- YFP fluorescence quenching using TC-5619/Bradanicline (percent quench) (100 nM brd (TC-5619/Bradanicline)): −2.03%
- YFP fluorescence quenching using TC-6683 (percent quench) (300 nM TC-6683): −23.976%
- YFP fluorescence quenching using ABT-126 (percent quench) (300 nM abt (ABT-126)): 11.65%
- YFP fluorescence quenching using AZD-0328 (percent quench) (300 nM azd0328): 4.94%
- YFP fluorescence quenching using CNL001 (percent quench) (1 uM CNL001, first column so headed): 73.019%
- YFP fluorescence quenching using CNL001 (percent quench) (1 uM CNL001, second column so headed): 73.527%
- YFP fluorescence quenching (percent quench) (1 uM CNL002): 45.55%
- YFP fluorescence quenching using ABT-126 (percent quench) (1 uM abt (ABT-126)): −3.06%
- YFP fluorescence quenching using TC-5619/Bradanicline (percent quench) (1 uM brd (TC-5619/Bradanicline)): 1.68%
- YFP fluorescence quenching using TC-6683 (percent quench) (3 uM TC-6683): −24.897%
- YFP fluorescence quenching (percent quench) (10 uM ach (acetylcholine)): −11.3%
- YFP fluorescence quenching (percent quench) (30 uM CNL002): 64.93%
- YFP fluorescence quenching using TC-6683 (percent quench) (30 uM TC-6683): −20.474%
- YFP fluorescence quenching using AZD-0328 (percent quench) (30 uM azd0328): 60.61%
- YFP fluorescence quenching using TC-6683 (percent quench) (100 uM TC-6683): −22.253%
- YFP fluorescence quenching (percent quench) (100 uM ach (acetylcholine)): −27.53%
- YFP fluorescence quenching (percent quench) (1 mM ach (acetylcholine)): 2.84%
- YFP fluorescence quenching (percent quench) (3 mM ach (acetylcholine)): 14.65%
- YFP fluorescence quenching using Facinicline, 30 nM fac (ligand Facinicline 30 nM): −23.44
- YFP fluorescence quenching using Facinicline, 300 nM fac (ligand Facinicline 300 nM): 2.75
- YFP fluorescence quenching using Facinicline, 10 uM fac (ligand Facinicline 10 uM): 69.71
- YFP fluorescence quenching using Facinicline, 30 uM fac (ligand Facinicline 30 uM): 61.44
- YFP fluorescence quenching using TC-6987, 1 uM tc6987 (ligand TC-6987 1 uM): −20.99
- YFP fluorescence quenching using TC-6987, 10 uM tc6987 (ligand TC-6987 10 uM): −27.62
- YFP fluorescence quenching using TC-6987, 500 uM tc6987 (ligand TC-6987 500 uM): −24.22
